Experimental findings from IntAct's records for PubMed 20700104 are described below.

To fix the notation:
B1: Caspase Dronc (Drosophila melanogaster (Fruit fly)), Q9XYF4 (parent)
chain: MQPPELEIGMPKRHREHIRKNLNILVEWTNYERLAMECVQQGILTVQMLRNTQDLNGKPFNMDEKDVRVEQHRRLLLKITQRGPTAYNLLINALRNINCLDAAVLLESVDESDSRPPFISLNERRTSRKSADIVDTPSPEASEGPCVSKLRNEPLGALTPYVGVVDGPEVKKSKKIHGGDSAILGTYKMQSRFNRGVLLMVNIMDYPDQNRRRIGAEKDSKSLIHLFQELNFTIFPYGNVNQDQFFKLLTMVTSSSYVQNTECFVMVLMTHGNSVEGKEKVEFCDGSVVDMQKIKDHFQTAKCPYLVNKPKVLMFPFCRGDEYDLGHPKNQGNLMEPVYTAQEEKWPDTQTEGIPSPSTNVPSLADTLVCYANTPGYVTHRDLDTGSWYIQKFCQVMADHAHDTDLEDILKKTSEAVGNKRTKKGSMQTGAYDNLGFNKKLYFNPGFFNE
B2: Caspase Dronc (Drosophila melanogaster (Fruit fly)), Q9XYF4 (parent)
chain: B1 chain
partner: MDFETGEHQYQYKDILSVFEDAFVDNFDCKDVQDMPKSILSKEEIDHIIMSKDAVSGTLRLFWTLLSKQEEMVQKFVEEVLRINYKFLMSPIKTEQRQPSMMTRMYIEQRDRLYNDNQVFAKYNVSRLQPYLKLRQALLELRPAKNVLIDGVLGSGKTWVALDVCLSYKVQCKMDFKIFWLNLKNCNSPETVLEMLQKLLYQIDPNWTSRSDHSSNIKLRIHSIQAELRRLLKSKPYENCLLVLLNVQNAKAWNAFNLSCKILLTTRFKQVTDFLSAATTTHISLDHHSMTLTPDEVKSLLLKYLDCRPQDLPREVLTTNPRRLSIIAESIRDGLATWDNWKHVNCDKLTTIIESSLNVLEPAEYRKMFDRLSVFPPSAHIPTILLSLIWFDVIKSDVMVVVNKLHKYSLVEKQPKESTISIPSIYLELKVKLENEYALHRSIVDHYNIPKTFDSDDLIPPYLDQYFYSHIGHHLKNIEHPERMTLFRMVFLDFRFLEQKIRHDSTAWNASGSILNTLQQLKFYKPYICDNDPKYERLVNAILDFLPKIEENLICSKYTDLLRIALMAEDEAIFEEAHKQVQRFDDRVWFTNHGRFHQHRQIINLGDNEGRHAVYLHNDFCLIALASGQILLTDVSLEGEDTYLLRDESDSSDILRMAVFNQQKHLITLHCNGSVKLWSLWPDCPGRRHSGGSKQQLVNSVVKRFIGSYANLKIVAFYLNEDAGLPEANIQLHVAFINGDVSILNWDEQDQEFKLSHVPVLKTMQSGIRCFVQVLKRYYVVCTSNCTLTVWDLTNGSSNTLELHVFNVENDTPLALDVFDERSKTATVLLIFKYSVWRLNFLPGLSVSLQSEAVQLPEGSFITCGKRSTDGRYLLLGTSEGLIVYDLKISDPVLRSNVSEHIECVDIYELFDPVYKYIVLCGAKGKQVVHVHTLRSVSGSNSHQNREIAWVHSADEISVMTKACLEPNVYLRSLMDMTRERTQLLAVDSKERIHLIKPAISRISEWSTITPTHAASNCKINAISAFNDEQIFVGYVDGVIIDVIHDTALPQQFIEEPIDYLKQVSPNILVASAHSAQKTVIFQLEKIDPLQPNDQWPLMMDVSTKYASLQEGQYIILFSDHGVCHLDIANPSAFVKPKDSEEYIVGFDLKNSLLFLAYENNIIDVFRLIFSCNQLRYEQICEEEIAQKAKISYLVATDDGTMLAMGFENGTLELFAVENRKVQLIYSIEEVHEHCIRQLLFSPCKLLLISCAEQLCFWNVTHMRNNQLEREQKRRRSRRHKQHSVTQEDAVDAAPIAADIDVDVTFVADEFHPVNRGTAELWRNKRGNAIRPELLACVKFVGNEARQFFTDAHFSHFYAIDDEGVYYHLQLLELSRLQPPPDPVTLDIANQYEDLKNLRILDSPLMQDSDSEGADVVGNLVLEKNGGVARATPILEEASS

In the first assay the parent is B1. Conditions: with kcc2a_drome CaMKII.
For the variant MQPPELEIGMPKRHREHIRKNLNILVEWTNYERLAMECVQQGILTVQMLRNTQDLNGKPFNMDEKDVRVEQHRRLLLKITQRGPTAYNLLINALRNINCLDAAVLLESVDESDSRPPFISLNERRTSRKAADIVDTPSPEASEGPCVSKLRNEPLGALTPYVGVVDGPEVKKSKKIHGGDSAILGTYKMQSRFNRGVLLMVNIMDYPDQNRRRIGAEKDSKSLIHLFQELNFTIFPYGNVNQDQFFKLLTMVTSSSYVQNTECFVMVLMTHGNSVEGKEKVEFCDGSVVDMQKIKDHFQTAKCPYLVNKPKVLMFPFCRGDEYDLGHPKNQGNLMEPVYTAQEEKWPDTQTEGIPSPSTNVPSLADTLVCYANTPGYVTHRDLDTGSWYIQKFCQVMADHAHDTDLEDILKKTSEAVGNKRTKKGSMQTGAYDNLGFNKKLYFNPGFFNE [S130A], the “effect of a mutation on the interaction” value is on record as “disrupting interaction”.

In a further assay the parent is B2. The following applies: with apaf_drome Dark.
For MQPPELEIGMPKRHREHIRKNLNILVEWTNYERLAMECVQQGILTVQMLRNTQDLNGKPFNMDEKDVRVEQHRRLLLKITQRGPTAYNLLINALRNINCLDAAVLLESVDESDSRPPFISLNERRTSRKAADIVDTPSPEASEGPCVSKLRNEPLGALTPYVGVVDGPEVKKSKKIHGGDSAILGTYKMQSRFNRGVLLMVNIMDYPDQNRRRIGAEKDSKSLIHLFQELNFTIFPYGNVNQDQFFKLLTMVTSSSYVQNTECFVMVLMTHGNSVEGKEKVEFCDGSVVDMQKIKDHFQTAKCPYLVNKPKVLMFPFCRGDEYDLGHPKNQGNLMEPVYTAQEEKWPDTQTEGIPSPSTNVPSLADTLVCYANTPGYVTHRDLDTGSWYIQKFCQVMADHAHDTDLEDILKKTSEAVGNKRTKKGSMQTGAYDNLGFNKKLYFNPGFFNE [S130A], the “effect of a mutation on the interaction” value is on record as “increasing interaction”.

For the variant MQPPELEIGMPKRHREHIRKNLNILVEWTNYERLAMECVQQGILTVQMLRNTQDLNGKPFNMDEKDVRVEQHRRLLLKITQRGPTAYNLLINALRNINCLDAAVLLESVDESDSRPPFISLNERRTSRKSADIVDTPSPEASEGPCVSKLRNEPLGALTPYVGVVDGPEVKKSKKIHGGDSAILGTYKMQSRFNRGVLLMVNIMDYPDQNRRRIGAEKDSKSLIHLFQELNFTIFPYGNVNQDQFFKLLTMVTSSSYVQNTECFVMVLMTHGNSVEGKEKVEFCDGSVVDMQKIKDHFQTAKCPYLVNKPKVLMFPFARGDEYDLGHPKNQGNLMEPVYTAQEEKWPDTQTEGIPSPSTNVPSLADTLVCYANTPGYVTHRDLDTGSWYIQKFCQVMADHAHDTDLEDILKKTSEAVGNKRTKKGSMQTGAYDNLGFNKKLYFNPGFFNE [C318A], the “effect of a mutation on the interaction” value was “increasing interaction”.
